Test results from article PMC10901556, “Conservation of Affinity Rather Than Sequence Underlies a Dynamic Evolution of the Motif-Mediated p53/MDM2 Interaction in Ray-Finned Fishes” (Molecular Biology and Evolution, 2024).

Key:
[1] = target: MDM2 SWIB domain from Oncorhynchus kisutch (coho salmon) (Oncorhynchus kisutch (coho salmon)); experiment: fluorescence polarisation; displacement: complex of MDM2 (0.2-2 μM) and FITC-p53TAD_(human)^15–26 (15 nM) displaced by increasing unlabeled p53TAD peptide or p53TAD^full-length; KD calculated from IC50 (Nikolovska-Coleska et al. 2004); 20 mM sodium phosphate pH 7.4, 150 mM NaCl, 1 mM TCEP
[2] = target: MDM2 SWIB domain from Clupea harengus (Atlantic herring) (Clupea harengus (Atlantic herring)); experiment: as above
[3] = target: MDM2_(D.rerio) SWIB domain (Danio rerio (zebrafish)); experiment: as above
[4] = target: MDM2 SWIB (Homo sapiens) (UniProt Q00987); conditions: cited from earlier work
[5] = target: MDM2 SWIB domain from Lepisosteus oculatus (spotted gar) (Lepisosteus oculatus (spotted gar)); experiment: fluorescence polarisation; displacement: complex of MDM2 (0.2-2 μM) and FITC-p53TAD_(human)^15–26 (15 nM) displaced by increasing unlabeled p53TAD peptide or p53TAD^full-length; KD calculated from IC50 (Nikolovska-Coleska et al. 2004); 20 mM sodium phosphate pH 7.4, 150 mM NaCl, 1 mM TCEP
[6] = target: MDM2_(D.rerio) SWIB domain (Danio rerio (zebrafish)); experiment: ITC; MicroCal iTC200, 25 °C; D. rerio MDM2 11 μM in the cell, p53TAD 118 or 116 μM in the syringe; 20 mM sodium phosphate pH 7.4, 150 mM NaCl, 1 mM TCEP
[7] = target: MDM2_(D.rerio) SWIB domain; experiment: fluorescence polarization competition assay
[8] = target: MDM2 SWIB domain from Anguilla anguilla (European eel) (Anguilla anguilla (European eel)); experiment: fluorescence polarisation; displacement: complex of MDM2 (0.2-2 μM) and FITC-p53TAD_(human)^15–26 (15 nM) displaced by increasing unlabeled p53TAD peptide or p53TAD^full-length; KD calculated from IC50 (Nikolovska-Coleska et al. 2004); 20 mM sodium phosphate pH 7.4, 150 mM NaCl, 1 mM TCEP
[9] = target: MDM2 SWIB domain from Channa argus (Channa argus); experiment: as above
[10] = target: MDM2 SWIB domain from Maylandia zebra (Maylandia zebra); experiment: as above
[11] = target: MDM2 SWIB domain from Takifugu rubripes (Japanese puffer) (Takifugu rubripes (Japanese puffer)); experiment: as above

With “Oncorhynchus kisutch p53TADP1b p53TAD^full-length (domain or fragment)” as the substance, how does the Kd [1] read?
Its Kd is 0.06 µM.

With “Clupea harengus (Atlantic herring) p53TADP1 p53TAD^full-length (domain or fragment)” as the substance, how does the Kd [2] read?
Its Kd is 0.19 µM.

With “alternative p53TAD^17–32_(D.rerio) (P79734) (peptide)” as the substance, how does the Kd [3] read?
The Kd was 0.58 µM.

With p53 TAD (from UniProt P04637) as the substance, how does the Kd [4] read?
The Kd was 0.1 µM.

Which Kd [5] does the source give for “Lepisosteus oculatus (spotted gar) p53TAD^full-length (domain or fragment)” here?
Its Kd is 0.085 µM.

For “p53TAD_(D.rerio)^full-length (domain or fragment)”, which Kd [6] is on record?
The Kd was 0.1 µM.

And the Kd [3]?
Its Kd is 0.049 µM.

With “Oncorhynchus kisutch (coho salmon) p53TADP1a p53TAD^full-length (domain or fragment)” as the substance, how does the Kd [1] read?
The Kd was 0.048 µM.

For p53TAD^17–32_(D.rerio) I28A, which Kd [7] is on record?
Its Kd is 0.46 µM.

Which Kd [8] does the source give for “Anguilla anguilla (European eel) p53TADP1 p53TAD^full-length (domain or fragment)” here?
The Kd was 0.23 µM.

For p53TAD^17–32_(D.rerio) (peptide), which Kd [6] is on record?
Its Kd is 0.3 µM.

And the Kd [3]?
The Kd was 0.18 µM.

With “Channa argus p53TADP1 p53TAD^full-length (domain or fragment)” as the substance, how does the Kd [9] read?
The Kd was 0.1 µM.

Which Kd [10] does the source give for “Maylandia zebra p53TADP1 p53TAD^full-length (domain or fragment)” here?
Its Kd is 0.19 µM.

With “Clupea harengus p53TADP2 p53TAD^full-length (domain or fragment)” as the substance, how does the Kd [2] read?
Its Kd is 0.04 µM.

With “Oncorhynchus kisutch p53TADP2 p53TAD^full-length (domain or fragment)” as the substance, how does the Kd [1] read?
The Kd was 0.07 µM.

For p53TAD_(H.sapiens)^15–27 (peptide), which Kd [1] is on record?
The Kd was 0.78 µM.

And the Kd [10]?
Its Kd is 1.7 µM.

And the Kd [9]?
The Kd was 2.1 µM.

What about the Kd [8] of the same substance?
The Kd was 0.9 µM.

And the Kd [11]?
The Kd was 1.1 µM.

And the Kd [2]?
Its Kd is 1.8 µM.

What about the Kd [5] of the same substance?
The Kd was 0.37 µM.

For “Clupea harengus p53TADP2 p53TAD^15–27 (peptide)”, which Kd [2] is on record?
The Kd was 0.6 µM.

Which Kd [8] does the source give for “Anguilla anguilla p53TADP2 p53TAD^full-length (domain or fragment)” here?
The Kd was 0.06 µM.
